Biological target: T1, hResistin (human, UniProt Q9HD89 19-108)
T1 construct: Immobilised on the SPR chip; also called human resistin; resistin protein
T1 sequence (looked up): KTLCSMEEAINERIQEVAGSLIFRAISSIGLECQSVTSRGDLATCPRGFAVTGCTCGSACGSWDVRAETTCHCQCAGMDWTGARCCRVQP
Assay: SPR (Reichert SR7500DC), hResistin immobilised on CMDH chip, peptide injected in PBS
Protocol: To measure the direct binding of hResistin and VS_peptide (SEQ ID NO: 2), SPR analysis was performed using Reichert SR7500DC system. hResistin (1.8 ug) and hPCSK9 (1.6 ug) proteins were immobilized on the carboxymethyl dextran hydrogel surface sensor chip (CMDH chip, Cat#: 13206066) by using a 10 mM sodium acetate immobilization buffer (pH 5.5 or pH 4.5). VS_peptide (SEQ ID NO: 2) diluted in PBS buffer (pH 7.4) in a dose-dependent manner was injected into the sensor chip (flow rate: 30 μl/min, association time: 3 min) to measure the response unit (RU) for binding strength. After the measurement of RU values for binding strength, PBS buffer (pH 7.4) was allowed to flow over the sensor chip at a rate of 30 μl/min for 3 minutes to measure dissociation RU values of VS_peptide (SEQ ID NO: 2) from hResistin immobilized on the chip. The dissociation equilibrium constant (KD) of VS_peptide (SEQ ID NO: 2) for hResistin was derived using Scrubber2 software (KD=Kd/Kₐ, Kₐ=association rate, Kd=dissociation rate).

B1: VS_peptide (SEQ ID NO: 2) (peptide)
peptide: PPPPGPPPPPVSTSSGSDES
notes: Synthesised by Peptron, Korea; also called peptide VS; Existing peptide
Kd: 3.7 mM
